Three molecules from patent publication US20200325237A1 (AVIDITY BIOSCIENCES, published 2020) can be followed below.

Residue numbers refer to the chain shown, from its start.

The target of assay [1] is T1, TfR2 (transferrin receptor 2) (UniProt Q9UP52 105-801, limits assumed).
T1 sequence (looked up): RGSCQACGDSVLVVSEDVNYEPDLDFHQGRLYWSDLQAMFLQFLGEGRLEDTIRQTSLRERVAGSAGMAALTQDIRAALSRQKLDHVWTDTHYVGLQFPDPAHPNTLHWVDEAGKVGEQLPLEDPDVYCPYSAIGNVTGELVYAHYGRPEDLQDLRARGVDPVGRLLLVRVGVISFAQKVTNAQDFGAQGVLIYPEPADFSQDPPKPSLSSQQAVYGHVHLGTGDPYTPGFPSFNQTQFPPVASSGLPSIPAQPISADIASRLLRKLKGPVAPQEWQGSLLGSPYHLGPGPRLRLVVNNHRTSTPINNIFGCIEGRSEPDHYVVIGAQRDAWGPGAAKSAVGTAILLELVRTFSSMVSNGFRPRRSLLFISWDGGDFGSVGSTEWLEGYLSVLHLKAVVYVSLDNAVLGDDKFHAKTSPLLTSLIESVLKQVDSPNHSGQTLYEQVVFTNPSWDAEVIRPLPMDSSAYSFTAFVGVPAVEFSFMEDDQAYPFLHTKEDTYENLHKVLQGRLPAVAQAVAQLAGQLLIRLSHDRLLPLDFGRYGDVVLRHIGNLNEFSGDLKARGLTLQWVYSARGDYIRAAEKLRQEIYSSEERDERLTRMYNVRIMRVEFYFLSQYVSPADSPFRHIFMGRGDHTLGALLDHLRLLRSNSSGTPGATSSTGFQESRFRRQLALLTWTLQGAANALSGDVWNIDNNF
Briefly: A450 plate assay on TfR2 (method not described in the text).

The target of assay [2] is T2, hTfR (human transferrin receptor, source and construct not stated) (human, UniProt P02786 89-760, limits assumed). Briefly: SPR (BioRad ProteOn XPR36), mAb captured on Protein A, hTfR as analyte, 25 C. The protocol: The binding kinetics of nine exemplary humanized anti-TfR antibodies and the parent chimeric antibody were characterized. Studies were run on a BioRad ProteOn XPR36 optical biosensor using a GLM sensor chip coated with Protein A for mAb capture. Running buffer included 10 mM EPES, 150 mM NaCl, pH 7.4 with 0.05 tween-20 with 0.2 mg/ml BSA. Data were collected at 25 degrees C. All mAbs were diluted into running buffer to 2 ug/ml based on the stock concentration provided. Each was then captured for 40 seconds over a Protein A surface.
T2 sequence (P02786 89-760 limits assumed): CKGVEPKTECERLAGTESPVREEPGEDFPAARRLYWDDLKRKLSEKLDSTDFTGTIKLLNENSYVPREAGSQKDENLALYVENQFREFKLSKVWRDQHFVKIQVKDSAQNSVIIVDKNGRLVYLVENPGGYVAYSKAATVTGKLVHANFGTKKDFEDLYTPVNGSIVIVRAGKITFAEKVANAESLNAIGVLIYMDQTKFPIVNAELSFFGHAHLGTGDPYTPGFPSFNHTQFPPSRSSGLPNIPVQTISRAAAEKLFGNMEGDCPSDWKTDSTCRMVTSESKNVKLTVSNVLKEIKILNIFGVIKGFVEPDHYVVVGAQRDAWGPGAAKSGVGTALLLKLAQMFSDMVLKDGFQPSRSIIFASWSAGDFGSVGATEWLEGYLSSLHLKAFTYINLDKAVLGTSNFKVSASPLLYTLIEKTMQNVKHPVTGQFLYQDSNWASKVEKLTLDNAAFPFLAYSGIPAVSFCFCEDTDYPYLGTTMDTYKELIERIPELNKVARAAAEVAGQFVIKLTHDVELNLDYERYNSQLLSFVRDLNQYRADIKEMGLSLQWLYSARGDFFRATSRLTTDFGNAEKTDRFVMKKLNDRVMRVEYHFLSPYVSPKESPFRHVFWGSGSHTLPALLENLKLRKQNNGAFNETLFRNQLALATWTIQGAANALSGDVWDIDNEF
hTfR (100 ug) was dissolved into […] of water to yield a 4.3 uM stock concentration. hTfR was dilted to 43 nM as the highest concentration and tested in a 3 fold dilution series. hTfR was injected at 200 ul/min for 2 minutes followed by a one-hour dissociation phase.

In assay [3] the target is T2, hTfR (human transferrin receptor, …). As to the kind of experiment: ELISA; ratio of the Kd on HFE-captured hTfR to the Kd on directly coated hTfR. Background: An ELISA detects its analyte on a solid surface through an enzyme-linked reagent.
The target is the same in assay [4]. As to the kind of experiment: ELISA; ratio of the Kd on transferrin-captured hTfR to the Kd on directly coated hTfR. Here is the method: (§1) Antibodies were biotinylated using 50 fold molar excess of EZ-Link No weigh NHS-Biotin (Thermo Scientific A39256) following manufacturer's instructions. Half-well high-bind plates (Costar #3690) were coated with 500 ng/mL purified human holo-transferrin (R&D Systems 2914-HT) in PBS at 4° C. overnight. For comparison, plates were coated directly with hTfR. Plates were washed four times with 100 μL of Tris buffered saline+Tween (20×TBST, Cell Signaling 9997S). 100 μL of Superblock (ThermoFisher PI-37535) was added to each well and incubated for 1 hour at room temperature. The wash step was repeated before the addition of the hTfR (200 ng/mL in 25 μl) to the transferrin plates, or Superblock to the hTfR plates, and incubated for 30 minutes. Biotinylated antibodies were diluted to 20 nM for the high concentration and added to the plates with 3-fold serial dilution. 25 μl/well was added to the 25 μl already in the plate. Plates were incubated for 1 hour, and wash step was repeated. Streptavidin-HRP (R&D Systems DY998) was added following recommended dilution on the package insert, and a final wash step was done. Binding was measured by the addition of 50 μL of 1-Step™ Ultra TMB-ELISA (ThermoFisher, 34028), incubated for 5 minutes, and the reaction was stopped with the addition of 25 μL of Stop Solution 2N sulfuric Acid (R&D Systems DY994). Absorbance was measured at 450 nm, with reference wavelength 570 nm subtracted. Binding constants were determined using GraphPad Prism Specific Binding with Hill Slope. Change in antibody binding constants in the presence versus absense of transferrin is considered relative to the commercially available antibody which is known to have an overlapping epitope with transferrin (AF2474, R&D Systems).

The target in assay [5] is T3, recombinant cyno transferrin receptor protein (Sino Biological 90253-C07H) (cyno, UniProt H9EXL1 89-760 (rhesus entry)).
T3 construct: Bought protein coated on ELISA plates; also called recombinant cyno TfR1; cynoTfR1
T3 sequence (chain, as listed by the source C07H C07H): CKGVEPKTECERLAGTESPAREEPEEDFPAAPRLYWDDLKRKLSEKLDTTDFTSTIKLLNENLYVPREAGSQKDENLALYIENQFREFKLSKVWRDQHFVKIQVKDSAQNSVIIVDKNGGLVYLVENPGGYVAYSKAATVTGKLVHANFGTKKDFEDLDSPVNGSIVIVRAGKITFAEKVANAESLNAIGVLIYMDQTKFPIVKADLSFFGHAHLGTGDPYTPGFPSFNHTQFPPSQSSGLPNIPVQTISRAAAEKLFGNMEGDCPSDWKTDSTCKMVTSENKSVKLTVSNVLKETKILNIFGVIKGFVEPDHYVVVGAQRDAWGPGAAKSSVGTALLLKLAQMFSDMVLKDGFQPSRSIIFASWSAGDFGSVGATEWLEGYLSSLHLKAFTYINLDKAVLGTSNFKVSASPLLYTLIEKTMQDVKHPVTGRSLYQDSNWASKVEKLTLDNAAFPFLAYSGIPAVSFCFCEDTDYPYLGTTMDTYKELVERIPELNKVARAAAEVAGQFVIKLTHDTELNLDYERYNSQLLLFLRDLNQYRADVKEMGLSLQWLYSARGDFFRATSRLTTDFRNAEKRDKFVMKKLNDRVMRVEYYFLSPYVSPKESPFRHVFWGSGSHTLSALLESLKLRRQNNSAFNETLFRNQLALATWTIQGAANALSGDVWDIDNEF
As to the kind of experiment: ELISA on plate-coated recombinant cyno TfR1 (CD71); fit: specific binding with Hill slope. Here is the method: (§2) Half-well high-binding 96-well plates (Costar #3690) were coated with recombinant human transferrin receptor protein (Sino Biological 11020-H07H) or recombinant cyno transferrin receptor protein (Sino Biological 90253-C07H) at 1 ng/μL in PBS (Gibco 14190) and incubated overnight at 4° C. Plates were washed four times with 100 μL of Tris buffered saline+Tween (20×TBST, Cell Signaling 9997S). 100 μL of Superblock (ThermoFisher PI-37535) was added to each well and incubated for 1 hour at room temperature. The wash step was repeated before the addition of the samples. Samples were added at concentrations up to 10 nM, 50 μL/well. Plates were incubated for another hour at room temp and wash step repeated. Secondary antibody (Peroxidase AffiniPure Goat Anti-Human IgG, Fcγ Fragment Specific, Jackson Immunoresearch, 109-035-098) was diluted 1:5000 in Superblock and 50 μL/well added. Plates were incubated for 1 hour at room temperature and washed one more time. Binding was measured by the addition of 50 μL of 1-Step™ Ultra TMB-ELISA (ThermoFisher, 34028), incubated for 5 minutes, and the reaction was stopped with the addition of 25 μL of Stop Solution 2N sulfuric Acid (R&D Systems DY994). Absorbance was measured at 450 nm, with reference wavelength 570 nm subtracted. Binding constants were determined using GraphPad Prism Specific Binding with Hill Slope.

Assay [6] concerns the target T4, recombinant human transferrin receptor protein (Sino Biological 11020-H07H) (human, UniProt P02786 89-760).
T4 construct: Bought protein coated on ELISA plates; also called recombinant human TfR1; human TfR1
Briefly: ELISA on plate-coated recombinant human TfR1 (CD71); fit: specific binding with Hill slope. The protocol: as §2

Assay [7] concerns the target T2, hTfR (human transferrin receptor, …). Briefly: ELISA, biotinylated antibody on hTfR captured by plate-coated HFE (HFE+TfR); fit: specific binding with Hill slope.
Assay [8] has the same target. As to the kind of experiment: ELISA, biotinylated antibody on hTfR captured by plate-coated human holo-transferrin (Tf+TfR); fit: specific binding with Hill slope. The protocol: as §1
Assay [9] has as its target T4, recombinant human transferrin receptor …. As to the kind of experiment: ELISA on plate-coated recombinant human TfR1 (CD71); fit: specific binding with Hill slope (row labels blank in the lower block; row taken by the order Bmax, h, Kd). The protocol:
as §2

T4 sequence (P02786 89-760 limits assumed): as the sequence (P02786 89-760 limits assumed) above

B1: 13E4-Variant 2iii (antibody, human IgG1, kappa, L234A L235A)
heavy: QVQLVQSGAEVKKPGASVKVSCKASGYTFTNYWMHWVRQAPGQGLEWIGEINPINGRSNYAEKFQGRVTLTVDTSSSTAYMELSRLRSDDTAVYYCARGTRAMHYWGQGTLVTVSSASTKGPSVFPLAPSSKSTSGGTAALGCLVKDYFPEPVTVSWNSGALTSGVHTFPAVLQSSGLYSLSSVVTVPSSSLGTQTYICNVNHKPSNTKVDKRVEPKSCDKTHTCPPCPAPEAAGGPSVFLFPPKPKDTLMISRTPEVTCVVVDVSHEDPEVKFNWYVDGVEVHNAKTKPREEQYNSTYRVVSVLTVLHQDWLNGKEYKCKVSNKARPAPIEKTISKAKGQPREPQVYTLPPSREEMTKNQVSLTCLVKGFYPSDIAVEWESNGQPENNYKTTPPVLDSDGSFFLYSKLTVDKSRWQQGNVFSCSVMHEALHNHYTQKSLSLSPG
light: DIQMTQSPSSLSASVGDRVTITCRTSENIYNNLAWYQQKPGKSPKLLIYAATNLADGVPSRFSGSGSGTDYTLTISSLQPEDFATYYCQHFWGTPLTFGGGTKVEIKRTVAAPSVFIFPPSDEQLKSGTASVVCLLNNFYPREAKVQWKVDNALQSGNSQESVTEQDSKDSTYSLSSTLTLSKADYEKHKVYACEVTHQGLSSPVTKSFNRGEC
notes: Humanized hIgG1 with Fc mutations; also called hIgG1 TfR-Var2iii
Usually Kd stands for the equilibrium constant for the complex coming apart. Broadly, the koff is the rate constant with which the complex falls apart. A low value points to slow dissociation. The kon is the rate constant with which the complex forms. Consider B1, for which, in assay [1], the binding result is reported as “no binding (tested: 1000 nM)”. In addition, the Kd in assay [2] is 0.95 pM; in assay [5] it was 0.0092 nM; in [6], 9.58 pM; in assay [7], 0.289 nM; in assay [8], 0.0522 nM. This molecule also yielded a koff in [2] of 8.2e-07 s⁻¹. The molecule also yielded a kon in assay [2] of 862000 M⁻¹ s⁻¹. The “Kd(HFE+TfR)/Kd(TfR)” value in [3] stood at 11.9. Further, the “Kd(Tf+TfR)/Kd(TfR)” value in assay [4] was 2.1. Further, the Bmax stood at 94.3 % max binding in assay [5], 95 % max binding in [6], 2.66 A450 in assay [7] and 3.47 A450 in assay [8]. Further, the h was 1.35 in [5], 1.2 in assay [6], 1.26 in [7] and 1.61 in [8].

B2: 13E4-Variant 9i (antibody, human IgG1, kappa, L234A L235A)
heavy: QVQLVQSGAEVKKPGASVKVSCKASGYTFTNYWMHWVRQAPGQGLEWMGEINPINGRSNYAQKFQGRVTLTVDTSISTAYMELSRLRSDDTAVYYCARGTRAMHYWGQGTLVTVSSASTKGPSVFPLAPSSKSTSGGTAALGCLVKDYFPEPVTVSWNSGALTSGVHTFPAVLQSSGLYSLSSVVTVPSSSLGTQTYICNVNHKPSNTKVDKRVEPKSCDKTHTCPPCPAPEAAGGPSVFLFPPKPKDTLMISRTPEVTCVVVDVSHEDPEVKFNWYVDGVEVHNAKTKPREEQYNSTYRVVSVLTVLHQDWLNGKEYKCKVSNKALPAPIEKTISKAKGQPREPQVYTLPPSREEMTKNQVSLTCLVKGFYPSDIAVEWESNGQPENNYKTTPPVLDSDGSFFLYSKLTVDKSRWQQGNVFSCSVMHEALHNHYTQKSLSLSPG
light: B1 light with S43A, D56E
notes: Humanized hIgG1 with Fc mutations; also called hIgG1 TfR-Var9i
As for B2, the binding result in assay [1] is “no binding (tested: 1000 nM)”. In assay [2], binding was characterised by a dissociation constant (Kd) of 1.21 pM, the koff was 1.02e-06 s⁻¹ and the kon is 843000 M⁻¹ s⁻¹. For the same molecule, in [3], the “Kd(HFE+TfR)/Kd(TfR)” value stood at 13.6. For the same molecule, in [4], the “Kd(Tf+TfR)/Kd(TfR)” value worked out at 2.2. In [5], the Bmax came out at 95 % max binding, the Kd amounted to 0.011 nM and the h was determined as 1.51. Also, in assay [6], the Bmax is 95.7 % max binding, the Kd was found to be 9.73 pM and the h was 1.22. Besides, in [7], the Bmax is 2.79 A450, binding was put at a Kd of 0.341 nM and the h came to 1.37. In assay [8], this molecule registered a Bmax of 3.53 A450, a Kd of 0.0559 nM and a h of 1.45.

B3: 13E4-Variant 9ii (antibody, human IgG1, kappa, L234A L235A)
heavy: B1 heavy with I48M, E62Q, S76I, K321G, R327L
light: B1 light with S43A, D56E
notes: Humanized hIgG1 with Fc mutations; also called hIgG1 TfR-Var9ii
As for B3, the binding result in [1] is “no binding (tested: 1000 nM)”. Also, the Kd in assay [2] worked out at 2.31 pM; in assay [5], 0.0114 nM; in assay [7], 0.229 nM; in [8] it was 0.057 nM; in [9], 8.23 pM. Moreover, in assay [2], the off-rate constant (koff) came out at 1.81e-06 s⁻¹. Besides, the kon in [2] came out at 784000 M⁻¹ s⁻¹. The “Kd(HFE+TfR)/Kd(TfR)” value in [3] was determined as 10.4. Further, the “Kd(Tf+TfR)/Kd(TfR)” value in [4] turned out to be 2.6. For the same molecule, the Bmax in [5] was 94.3 % max binding; in assay [7] it was 3 A450; in [8], 3.51 A450; in [9], 95.2 % max binding. In addition, the h in assay [5] turned out to be 1.74; in assay [7], 1.36; in assay [8], 1.48; in [9], 1.57.
